Our source for the Km, kcat and kcat/Km values is article PMC10687086, “Illuminating the mechanism and allosteric behavior of NanoLuc luciferase” (Nature Communications, 2023).

What all share (experiment): luminescence, global fit of progress curves
Type in all cases: biochemical, Oplophorus gracilirostris
Holding throughout (conditions): 100 mM potassium phosphate pH 7.50, 37 °C, co-substrate O2, pH 7.5

Substrate in series [1]: Oc1ccc(Cc2nc3c(Cc4ccccc4)nc(-c4ccc(O)cc4)cn3c2O)cc1
The text has this:
(§1) luminescence, global fit of progress curves on NanoLuc luciferase (NLuc)

Substrate in series [2]: O=c1c(Cc2ccco2)nc2c(Cc3ccccc3)[nH]c(-c3ccccc3)cn1-2
From the text: as §1

Substrate in series [3]: Oc1ccc(Cc2nc3c(Cc4ccccc4)nc(-c4ccc(O)cc4)cn3c2O)cc1
This is another data set of the same source.

Substrate in series [4]: O=c1c(Cc2ccco2)nc2c(Cc3ccccc3)[nH]c(-c3ccccc3)cn1-2
This is another data set of the same source.

B1: NanoLuc luciferase (NLuc) (Oplophorus gracilirostris; A31E/A60N/A81I/F95D/I117V/K70R/L54V/L99Q/M102K/N193R/P142E/Q151K/Q38R/Q45L/V71I/Y121A/Y165I) (protein)
chain: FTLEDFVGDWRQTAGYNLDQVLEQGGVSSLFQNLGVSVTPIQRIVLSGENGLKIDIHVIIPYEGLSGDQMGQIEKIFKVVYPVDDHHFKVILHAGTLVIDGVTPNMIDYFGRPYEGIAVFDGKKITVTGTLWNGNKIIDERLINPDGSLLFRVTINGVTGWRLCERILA
notes: engineered 19 kDa catalytic subunit of OLuc (16 residues mutated); monomer in solution, homotetramer in crystals
Broadly, the Km is the concentration of substrate that gives half-maximal velocity. In general, kcat refers to the maximal rate divided by the concentration of active sites. What is called kcat/Km is the second-order rate constant that governs catalysis at low substrate concentration. For B1, in series [1], the Km was 3.74 ± 0.09 µM, the kcat turned out to be 0.225 ± 0.004 s⁻¹ and the kcat/Km was 60000 ± 1000 M⁻¹ s⁻¹. Further, in series [2], the Km was 1.29 ± 0.02 µM, the kcat turned out to be 0.519 ± 0.007 s⁻¹ and the kcat/Km is 402000 ± 6000 M⁻¹ s⁻¹.

B2: NanoLuc luciferase (NLuc) (Oplophorus gracilirostris; A31E/A60N/A81I/D36R/F95D/H84A/I117V/K116R/K70R/L54V/L99Q/M102K/N193R/P142E/Q151K/Q38R/Q45L/V71I/Y165I) (protein)
chain: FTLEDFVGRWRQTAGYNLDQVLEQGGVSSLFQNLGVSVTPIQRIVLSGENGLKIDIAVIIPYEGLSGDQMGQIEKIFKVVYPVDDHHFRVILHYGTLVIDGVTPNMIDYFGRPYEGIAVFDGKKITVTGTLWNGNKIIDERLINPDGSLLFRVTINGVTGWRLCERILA
notes: as for B1
For B2, in series [1], the Michaelis-Menten constant (Km) is 0.77 ± 0.07 µM, the kcat stood at 40 ± 4 s⁻¹ and the kcat/Km stood at 7e+07 ± 7e+06 M⁻¹ s⁻¹.

B3: NanoLuc luciferase (NLuc) (Oplophorus gracilirostris; A31E/A60N/A81I/D36R/F95D/I117V/K116R/K70R/L54V/L99Q/M102K/N193R/P142E/Q151K/Q38R/Q45L/V71I/Y165I) (protein)
chain: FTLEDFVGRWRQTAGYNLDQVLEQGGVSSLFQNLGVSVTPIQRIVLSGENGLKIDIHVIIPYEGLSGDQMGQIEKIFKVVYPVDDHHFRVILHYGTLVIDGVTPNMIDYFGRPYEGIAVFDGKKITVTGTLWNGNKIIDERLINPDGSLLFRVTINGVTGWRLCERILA
notes: as for B1
With B3, in series [3], the Km stood at 0.46 ± 0.01 µM, the kcat was determined as 16.8 ± 0.6 s⁻¹ and the kcat/Km came to 3.7e+07 ± 1e+06 M⁻¹ s⁻¹. Also, in series [4], the Km stood at 0.157 ± 0.009 µM, the catalytic constant (kcat) stood at 5.2 ± 0.1 s⁻¹ and the catalytic efficiency (kcat/Km) amounted to 3.3e+07 ± 2e+06 M⁻¹ s⁻¹.
